Results published in IntAct's records for PubMed 15064750.

B1: Proliferation-associated protein 2G4 (Homo sapiens), Q9UQ80 (parent)
chain: MSGEDEQQEQTIAEDLVVTKYKMGGDIANRVLRSLVEASSSGVSVLSLCEKGDAMIMEETGKIFKKEKEMKKGIAFPTSISVNNCVCHFSPLKSDQDYILKEGDLVKIDLGVHVDGFIANVAHTFVVDVAQGTQVTGRKADVIKAAHLCAEAALRLVKPGNQNTQVTEAWNKVAHSFNCTPIEGMLSHQLKQHVIDGEKTIIQNPTDQQKKDHEKAEFEVHEVYAVDVLVSSGEGKAKDAGQRTTIYKRDPSKQYGLKMKTSRAFFSEVERRFDAMPFTLRAFEDEKKARMGVVECAKHELLQPFNVLYEKEGEFVAQFKFTVLLMPNGPMRITSGPFEPDLYKSEMEVQDAELKALLQSSASRKTQKKKKKKASKTAENATSGETLEENEAGD

Variants of: B1
Conditions: with npm_human NPM1, P06748
Sequence of npm_human NPM1, P06748 (P06748 whole entry): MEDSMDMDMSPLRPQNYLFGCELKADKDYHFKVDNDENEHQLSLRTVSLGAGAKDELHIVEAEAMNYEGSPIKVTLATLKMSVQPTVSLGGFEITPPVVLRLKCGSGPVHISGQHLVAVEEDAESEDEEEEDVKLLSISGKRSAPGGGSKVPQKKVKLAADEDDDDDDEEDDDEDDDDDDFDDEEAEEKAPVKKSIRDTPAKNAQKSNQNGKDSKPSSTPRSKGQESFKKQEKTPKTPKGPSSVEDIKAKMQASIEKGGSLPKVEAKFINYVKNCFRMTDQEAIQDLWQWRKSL

| effect of a mutation on the interaction | Variant |
| --- | --- |
| disrupting interaction | MSGEDEQQEQTIAEDLVVTAYAMGGDIANRVLRSLVEASSSGVSVLSLCEKGDAMIMEETGKIFKKEKEMKKGIAFPTSISVNNCVCHFSPLKSDQDYILKEGDLVKIDLGVHVDGFIANVAHTFVVDVAQGTQVTGRKADVIKAAHLCAEAALRLVKPGNQNTQVTEAWNKVAHSFNCTPIEGMLSHQLKQHVIDGEKTIIQNPTDQQKKDHEKAEFEVHEVYAVDVLVSSGEGKAKDAGQRTTIYKRDPSKQYGLKMKTSRAFFSEVERRFDAMPFTLRAFEDEKKARMGVVECAKHELLQPFNVLYEKEGEFVAQFKFTVLLMPNGPMRITSGPFEPDLYKSEMEVQDAELKALLQSSASRKTQKKKKKKASKTAENATSGETLEENEAGD [K20A;K22A] |
| decreasing interaction | MSGEDEQQEQTIAEDLVVTKYKMGGDIANRVLRSLVEASSSGVSVLSLCEKGDAMIMEETGKIFKKEKEMKKGIAFPTSISVNNCVCHFSPLKSDQDYILKEGDLVKIDLGVHVDGFIANVAHTFVVDVAQGTQVTGRKADVIKAAHLCAEAALRLVKPGNQNTQVTEAWNKVAHSFNCTPIEGMLSHQLKQHVIDGEKTIIQNPTDQQKKDHEKAEFEVHEVYAVDVLVSSGEGKAKDAGQRTTIYKRDPSKQYGLKMKTSRAFFSEVERRFDAMPFTLRAFEDEKKARMGVVECAKHELLQPFNVLYEKEGEFVAQFKFTVLLMPNGPMRITSGPFEPDLYKSEMEVQDAELKALLQSSASAATQKKKKKKASKTAENATSGETLEENEAGD [R364A;K365A] |
